Data: PMC12784347, “Structural insights into substrate binding, residue contributions, and catalytic mechanism of phosphopantetheine adenylyltransferase from Helicobacter pylori” (Bioscience Reports, 2025)
Where a chain is given by its changes, count along the chain named. Names and notes keep the numbering of the source.

How the values were obtained:
[1] = target: the molecule itself; assay: crystal structure; HpPPAT:ATP; reservoir 17% PEG1000, 0.1 M citrate phosphate pH 4.2, 1.5 mM ATP, 0.2 M Li2SO4; space group P1, 12 copies in the asymmetric unit; 2.12 Å
[2] = target: the molecule itself; assay: crystal structure; apo HpPPAT; hanging-drop vapor diffusion, 293K, protein 15 mg/ml in 20 mM Tris-HCl pH 7.9, 100 mM NaCl; reservoir 2.5 M NaCl, 0.1 M sodium acetate pH 4.5, 0.2 M Li2SO4; space group H3, two copies in the asymmetric unit; 1.98 Å
[3] = target: the molecule itself; assay: crystal structure; HpPPAT P8A:dPCoA; reservoir 18% PEG550 MME, 0.2 M KF pH 7.4; space group P2(1)2(1)2, hexamer; 2.00 Å

B1: Helicobacter pylori phosphopantetheine adenylyltransferase, wild type (enzyme)
chain: MQKIGIYPGTFDPVTNGHIDIIHRSSELFEKLIVAVAHSSAKNPMFSLDERLKMIQLATKSFKNVECVAFEGLLANLAKEYHCKVLVRGLRVVSDFEYELQMGYANKSLNHELETLYFMPTLQNAFISSSIVRSIIAHKGDASHLVPKEIYPLISKA
notes: Phosphopantetheine adenylyltransferase (PPAT; EC 2.7.3.3) of Helicobacter pylori; each monomer in the crystal structures comprises 157 residues; also called HpPPAT; WT HpPPAT
In the case of B1, the “stoichiometry N” value [1] is reported as 12 and the “stoichiometry N” value [2] is reported as 2.

B2: Helicobacter pylori phosphopantetheine adenylyltransferase P8A mutant (enzyme)
chain: B1 chain with P8A
notes: Phosphopantetheine adenylyltransferase (PPAT; EC 2.7.3.3) of Helicobacter pylori with Pro8 replaced by alanine; also called HpPPAT P8A; HpPPAT mutant P8A
B2 was tested, and the “stoichiometry N” value [3] was 6.
